Data taken from patent US8551717B2, “Method for determining sumoylation” (Medizinische Hochschule Hannover, priority 2008, dated 2013).

Experiments:
Ubc9-FKBP = target: T1, Ubc9-FKBP (Homo sapiens, UniProt P42345+P63279); test: USDDS specificity for SUMOylation sites (K-to-R mutants), western blot; type: cell-based; conditions: HEK293, coexpressed with Ubc9-FKBP and EGFP-SUMO1, stimulated with AP21967 1 μM
T1 construct: expressed in transfected cells; host or cells: HEK293

STAT1 = test: Interplay of STAT1 Y701 phosphorylation and K703 SUMOylation by USDDS, western blot; type: cell-based, human; conditions: HEK293, USDDS with AP21967 1 μM and interferon-β, any stimulation scenario
U-CDC37 = target: T2, U-CDC37 (Homo sapiens, UniProt P63279+Q16543); test: Trans-SUMOylation by U-CDC37; type: cell-based; set-up: key: (++), strong TransSUMOylation; (+), TransSUMOylation; (+/−) weak TransSUMOylation; (−) no detectable TransSUMOylation; conditions: protein 2 construct coexpressed with U-CDC37 and EGFP-SUMO1 in HEK293; western blot; Table 1
T2 construct: expressed in transfected cells; host or cells: HEK293
Text: (§1) To identify new SUMOylation substrates and to study the function of SUMOylation the Ubc9/substrate dimerisation-dependent SUMOylation system (USDDS) was developed which consists of fusions of the SUMOylation substrate and of the SUMO-conjugating enzyme Ubc9 to the chemically activatable heterodimerisation domains FKBP and FRB, respectively, as shown in FIG. 2. When the substrate protein fused to FKBP is coexpressed with Ubc9-FRB, treatment of HEK293 cells with the rapamycin-related dimerizer AP21967 induces SUMOylation of the substrate protein fused to FKBP at its specific SUMOylation site. […] Dependent on an EcoRl site in the coding sequence, seven C-terminal amino acids of the human STAT1a in the STAT1-FKBP/FRB fusion proteins are missing. For the SUMOylation analysis HEK293 (human embryonic kidney cells) cells have been used. HEK293 cells were cultured in Dulbecco's modified Eagle's medium with high glucose, complemented with 10% fetal calf serum, 2 mM L-glutamine, 100 U/ml penicillin and […] streptomycin. […]
(§2) As shown above, the SUMOylation of a protein of interest can be induced by the heterodimerisation with a binding protein fused to Ubc9. […] Therefore the protein pairs were coexpressed with EGFP-SUMO1 in HEK293 cells and after 24h the transfectants were lysed and the protein extracts were analyzed in western blots. […]

p53-U = target: T3, p53-U (Homo sapiens, UniProt P04637+P63279); test: Trans-SUMOylation by p53-U; type: cell-based; conditions: western blot
T3 construct: expressed in transfected cells; host or cells: HEK293

JUN-U = target: T4, JUN-U (Homo sapiens, UniProt P05412+P63279); test: Trans-SUMOylation by JUN-U; type: cell-based; conditions: protein 2 construct coexpressed with JUN-U and EGFP-SUMO1 in HEK293, western blot
T4 construct: expressed in transfected cells; host or cells: HEK293

U-MK2 = target: T5, U-MK2 (Homo sapiens, UniProt P49137+P63279); test: Trans-SUMOylation by U-MK2; type: cell-based; conditions: protein 2 construct coexpressed with U-MK2 and EGFP-SUMO1 in HEK293; western blot; Table 2
T5 construct: expressed in transfected cells; host or cells: HEK293

MK2-U = target: T6, MK2-U (Homo sapiens, UniProt P49137+P63279); test: Trans-SUMOylation by MK2-U; type: cell-based; conditions: protein 2 construct coexpressed with MK2-U and EGFP-SUMO1 in HEK293; western blot; Table 2
T6 construct: expressed in transfected cells; host or cells: HEK293

U-p38α = target: T7, U-p38α (Homo sapiens, UniProt P63279+Q16539); test: Trans-SUMOylation by U-p38α; type: cell-based; conditions: protein 2 construct coexpressed with U-p38α and EGFP-SUMO1 in HEK293; western blot; Table 2
T7 construct: expressed in transfected cells; host or cells: HEK293

U-MK5 = target: T8, U-MK5 (Homo sapiens, UniProt P63279+Q8IW41); test: Trans-SUMOylation by U-MK5; type: cell-based; set-up: key: (++), strong TransSUMOylation; (+), TransSUMOylation; (+/−) weak TransSUMOylation; (−) no detectable TransSUMOylation; conditions: protein 2 construct coexpressed with U-MK5 and EGFP-SUMO1 in HEK293; western blot; Table 2
T8 construct: expressed in transfected cells; host or cells: HEK293
Text: as §1, §2

[1] = protein 2 construct coexpressed with p53-U and EGFP-SUMO1 in HEK293, Table 2

T4 sequence (P05412+P63279 fused): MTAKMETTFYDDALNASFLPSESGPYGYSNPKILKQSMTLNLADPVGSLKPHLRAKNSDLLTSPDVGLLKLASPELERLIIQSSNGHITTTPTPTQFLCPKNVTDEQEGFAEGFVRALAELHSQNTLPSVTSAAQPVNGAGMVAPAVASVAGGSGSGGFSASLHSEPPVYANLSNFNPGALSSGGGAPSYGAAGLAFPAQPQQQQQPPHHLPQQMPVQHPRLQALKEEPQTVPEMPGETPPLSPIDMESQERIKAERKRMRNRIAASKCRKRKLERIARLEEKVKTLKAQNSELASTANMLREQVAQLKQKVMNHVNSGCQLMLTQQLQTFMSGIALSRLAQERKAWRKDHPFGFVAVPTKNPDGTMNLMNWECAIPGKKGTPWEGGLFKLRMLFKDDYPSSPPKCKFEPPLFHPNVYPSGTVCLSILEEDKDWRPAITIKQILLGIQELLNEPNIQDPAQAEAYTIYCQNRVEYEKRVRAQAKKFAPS
T1 sequence (P63279 with tags, fused parts or gaps): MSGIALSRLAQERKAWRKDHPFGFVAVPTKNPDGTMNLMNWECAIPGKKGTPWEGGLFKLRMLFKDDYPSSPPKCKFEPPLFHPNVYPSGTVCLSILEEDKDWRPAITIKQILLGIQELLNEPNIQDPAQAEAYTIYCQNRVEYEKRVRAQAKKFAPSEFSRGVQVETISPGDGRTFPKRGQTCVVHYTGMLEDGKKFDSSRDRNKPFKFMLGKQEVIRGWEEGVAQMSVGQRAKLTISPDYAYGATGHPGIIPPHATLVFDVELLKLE
T1 sequence (P42345 2021-2113 limits assumed): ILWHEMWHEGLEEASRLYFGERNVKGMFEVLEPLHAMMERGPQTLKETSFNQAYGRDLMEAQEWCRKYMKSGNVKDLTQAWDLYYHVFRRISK
T8 sequence (P63279+Q8IW41 fused): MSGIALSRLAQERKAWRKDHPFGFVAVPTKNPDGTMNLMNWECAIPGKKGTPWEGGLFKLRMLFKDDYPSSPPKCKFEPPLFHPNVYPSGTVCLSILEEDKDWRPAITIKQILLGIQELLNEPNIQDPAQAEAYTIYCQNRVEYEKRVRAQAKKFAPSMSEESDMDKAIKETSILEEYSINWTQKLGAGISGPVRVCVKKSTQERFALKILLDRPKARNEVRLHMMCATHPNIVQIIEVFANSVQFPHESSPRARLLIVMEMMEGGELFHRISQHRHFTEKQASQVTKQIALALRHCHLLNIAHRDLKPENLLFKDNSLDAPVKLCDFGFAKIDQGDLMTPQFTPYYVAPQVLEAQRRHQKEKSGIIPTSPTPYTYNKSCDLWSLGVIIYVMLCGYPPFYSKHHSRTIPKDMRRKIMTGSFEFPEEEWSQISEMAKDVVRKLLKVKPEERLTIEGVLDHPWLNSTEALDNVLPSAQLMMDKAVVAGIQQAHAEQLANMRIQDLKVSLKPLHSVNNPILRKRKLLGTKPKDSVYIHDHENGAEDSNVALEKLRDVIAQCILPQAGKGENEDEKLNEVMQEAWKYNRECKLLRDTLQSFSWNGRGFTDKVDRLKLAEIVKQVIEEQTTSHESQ
T5 sequence (P63279+P49137 fused): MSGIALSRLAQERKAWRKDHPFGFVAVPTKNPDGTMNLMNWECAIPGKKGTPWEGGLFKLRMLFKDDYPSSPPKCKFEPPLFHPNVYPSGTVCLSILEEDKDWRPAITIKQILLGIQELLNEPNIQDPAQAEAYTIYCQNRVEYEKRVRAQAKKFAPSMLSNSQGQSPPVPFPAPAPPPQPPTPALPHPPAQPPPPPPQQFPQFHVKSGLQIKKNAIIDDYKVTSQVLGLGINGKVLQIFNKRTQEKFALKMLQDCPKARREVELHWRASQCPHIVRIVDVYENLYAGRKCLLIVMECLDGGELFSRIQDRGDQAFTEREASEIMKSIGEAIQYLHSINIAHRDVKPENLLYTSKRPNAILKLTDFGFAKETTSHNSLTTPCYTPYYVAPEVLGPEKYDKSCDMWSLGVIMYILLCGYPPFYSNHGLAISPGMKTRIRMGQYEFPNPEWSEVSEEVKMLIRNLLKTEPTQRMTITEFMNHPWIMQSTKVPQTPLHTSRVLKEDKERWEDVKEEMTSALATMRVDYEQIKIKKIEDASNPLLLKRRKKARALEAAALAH
T6 sequence (P49137+P63279 fused): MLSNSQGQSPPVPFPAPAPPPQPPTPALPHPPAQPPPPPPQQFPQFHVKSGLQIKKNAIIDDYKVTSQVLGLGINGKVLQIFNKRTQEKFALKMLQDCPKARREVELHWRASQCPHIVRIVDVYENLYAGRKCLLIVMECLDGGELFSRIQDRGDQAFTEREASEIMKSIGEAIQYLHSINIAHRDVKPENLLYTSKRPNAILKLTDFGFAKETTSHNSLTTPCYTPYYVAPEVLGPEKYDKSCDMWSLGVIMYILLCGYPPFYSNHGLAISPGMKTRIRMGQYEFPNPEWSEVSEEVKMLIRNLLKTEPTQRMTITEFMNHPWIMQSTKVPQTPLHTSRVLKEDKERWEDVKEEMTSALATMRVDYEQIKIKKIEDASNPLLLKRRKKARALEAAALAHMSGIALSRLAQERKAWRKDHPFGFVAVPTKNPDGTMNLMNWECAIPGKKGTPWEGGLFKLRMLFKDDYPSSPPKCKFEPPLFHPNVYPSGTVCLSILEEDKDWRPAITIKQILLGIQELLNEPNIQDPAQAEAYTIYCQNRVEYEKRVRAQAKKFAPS
T2 sequence (P63279+Q16543 fused): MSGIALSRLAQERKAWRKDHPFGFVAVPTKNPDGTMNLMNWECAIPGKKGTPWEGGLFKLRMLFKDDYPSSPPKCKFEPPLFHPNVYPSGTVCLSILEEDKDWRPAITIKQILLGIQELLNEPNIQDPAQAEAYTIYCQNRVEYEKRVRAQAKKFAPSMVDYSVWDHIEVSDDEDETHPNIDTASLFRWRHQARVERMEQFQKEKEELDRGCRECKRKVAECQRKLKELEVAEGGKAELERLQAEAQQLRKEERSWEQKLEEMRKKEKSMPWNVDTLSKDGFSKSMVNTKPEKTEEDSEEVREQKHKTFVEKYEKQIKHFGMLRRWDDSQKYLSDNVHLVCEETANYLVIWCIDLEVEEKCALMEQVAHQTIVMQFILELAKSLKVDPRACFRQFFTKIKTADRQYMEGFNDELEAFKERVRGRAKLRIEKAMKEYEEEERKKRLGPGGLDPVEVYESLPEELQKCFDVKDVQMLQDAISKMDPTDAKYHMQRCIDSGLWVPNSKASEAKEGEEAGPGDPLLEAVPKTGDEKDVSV
T7 sequence (P63279+Q16539 fused): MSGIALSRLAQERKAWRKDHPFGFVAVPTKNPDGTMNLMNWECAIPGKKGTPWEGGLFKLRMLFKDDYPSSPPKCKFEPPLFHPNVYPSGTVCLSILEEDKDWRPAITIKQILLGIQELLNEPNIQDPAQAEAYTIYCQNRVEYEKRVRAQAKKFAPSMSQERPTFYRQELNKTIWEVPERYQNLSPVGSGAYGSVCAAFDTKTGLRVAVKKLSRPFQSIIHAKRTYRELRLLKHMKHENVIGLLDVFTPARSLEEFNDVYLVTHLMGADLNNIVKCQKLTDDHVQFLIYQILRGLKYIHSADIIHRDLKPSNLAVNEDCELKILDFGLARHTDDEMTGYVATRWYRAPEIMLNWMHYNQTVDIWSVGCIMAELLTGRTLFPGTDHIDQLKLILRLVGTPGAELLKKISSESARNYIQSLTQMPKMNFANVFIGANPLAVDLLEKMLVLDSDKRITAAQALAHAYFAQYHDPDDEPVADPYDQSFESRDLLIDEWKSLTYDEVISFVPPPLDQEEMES

B1: STAT1K703R-FRB: STAT1 SUMOylation site mutant K703R fused to FRB (protein, UniProt P42224 2-750, looked up, variant K703R)
Signal transducer and …: SQWYELQQLDSKFLEQVHQLYDDSFPMEIRQYLAQWLEKQDWEHAANDVSFATIRFHDLLSQLDDQYSRFSLENNFLLQHNIRKSKRNLQDNFQEDPIQMSMIIYSCLKEERKILENAQRFNQAQSGNIQSTVMLDKQKELDSKVRNVKDKVMCIEHEIKSLEDLQDEYDFKCKTLQNREHETNGVAKSDQKQEQLLLKKMYLMLDNKRKEVVHKIIELLNVTELTQNALINDELVEWKRRQQSACIGGPPNACLDQLQNWFTIVAESLQQVRQQLKKLEELEQKYTYEHDPITKNKQVLWDRTFSLFQQLIQSSFVVERQPCMPTHPQRPLVLKTGVQFTVKLRLLVKLQELNYNLKVKVLFDKDVNERNTVKGFRKFNILGTHTKVMNMEESTNGSLAAEFRHLQLKEQKNAGTRTNEGPLIVTEELHSLSFETQLCQPGLVIDLETTSLPVVVISNVSQLPSGWASILWYNMLVAEPRNLSFFLTPPCARWAQLSEVLSWQFSSVTKRGLNVDQLNMLGEKLLGPNASPDGLIPWTRFCKENINDKNFPFWLWIESILELIKKHLLPLWNDGCIMGFISKERERALLKDQQPGTFLLRFSESSREGAITFTWVERSQNGGEPDFHAVEPYTKKELSAVTFPDIIRNYKVMAAENIPENPLKYLYPNIDKDHAFGKYYSRPKEAPEPMELDGPKGTGYIRTELISVSEVHPSRLQTTDNLLPMSPEEFDEVSRIVGSVEFDSMMNTV
modifications: fused to FRB domain
B1 was tested, and the “SUMOylation of mutant fusion protein” value (Ubc9-FKBP) was “nearly no SUMOylation”.

B2: STAT1-FRB: human STAT1a fused to FRB (T2098L) heterodimerisation domain (protein)
chain: MSQWYELQQLDSKFLEQVHQLYDDSFPMEIRQYLAQWLEKQDWEHAANDVSFATIRFHDLLSQLDDQYSRFSLENNFLLQHNIRKSKRNLQDNFQEDPIQMSMIIYSCLKEERKILENAQRFNQAQSGNIQSTVMLDKQKELDSKVRNVKDKVMCIEHEIKSLEDLQDEYDFKCKTLQNREHETNGVAKSDQKQEQLLLKKMYLMLDNKRKEVVHKIIELLNVTELTQNALINDELVEWKRRQQSACIGGPPNACLDQLQNWFTIVAESLQQVRQQLKKLEELEQKYTYEHDPITKNKQVLWDRTFSLFQQLIQSSFVVERQPCMPTHPQRPLVLKTGVQFTVKLRLLVKLQELNYNLKVKVLFDKDVNERNTVKGFRKFNILGTHTKVMNMEESTNGSLAAEFRHLQLKEQKNAGTRTNEGPLIVTEELHSLSFETQLCQPGLVIDLETTSLPVVVISNVSQLPSGWASILWYNMLVAEPRNLSFFLTPPCARWAQLSEVLSWQFSSVTKRGLNVDQLNMLGEKLLGPNASPDGLIPWTRFCKENINDKNFPFWLWIESILELIKKHLLPLWNDGCIMGFISKERERALLKDQQPGTFLLRFSESSREGAITFTWVERSQNGGEPDFHAVEPYTKKELSAVTFPDIIRNYKVMAAENIPENPLKYLYPNIDKDHAFGKYYSRPKEAPEPMELDGPKGTGYIKTELISVSEVHPSRLQTTDNLLPMSPEEFDEVSRIVGSVEFILWHEMWHEGLEEASRLYFGERNVKGMFEVLEPLHAMMERGPQTLKETSFNQAYGRDLMEAQEWCRKYMKSGNVKDLLQAWDLYYHVFRRISK
B2 was tested, and the “double modification of STAT1 by SUMOylation and Y701 phosphorylation” value (STAT1) was “no double modification”.

B3: GST-CDK4: CDK4 fused to GST tag (protein, UniProt P11802 2-303, looked up)
Cyclin-dependent kinase 4: ATSRYEPVAEIGVGAYGTVYKARDPHSGHFVALKSVRVPNGGGGGGGLPISTVREVALLRRLEAFEHPNVVRLMDVCATSRTDREIKVTLVFEHVDQDLRTYLDKAPPPGLPAETIKDLMRQFLRGLDFLHANCIVHRDLKPENILVTSGGTVKLADFGLARIYSYQMALTPVVVTLWYRAPEVLLQSTYATPVDMWSVGCIFAEMFRRKPLFCGNSEADQLGKIFDLIGLPPEDDWPRDVSLPRGAFPPRGPRPVQSVVPEMEESGAQLLLEMLTFNPHKRISAFRALQHSYLHKDEGNPE
modifications: GST tag
In the case of B3, the Trans-SUMOylation (U-CDC37) is reported as “+” and the Trans-SUMOylation (p53-U; [1]) is reported as “−”.

B4: HA-JNK1: JNK1 fused to HA tag (protein)
chain: MSRSKRDNNFYSVEIGDSTFTVLKRYQNLKPIGSGAQGIVCAAYDAILERNVAIKKLSRPFQNQTHAKRAYRELVLMKCVNHKNIIGLLNVFTPQKSLEEFQDVYIVMELMDANLCQVIQMELDHERMSYLLYQMLCGIKHLHSAGIIHRDLKPSNIVVKSDCTLKILDFGLARTAGTSFMMTPYVVTRYYRAPEVILGMGYKENVDLWSVGCIMGEMVCHKILFPGRDYIDQWNKVIEQLGTPCPEFMKKLQPTVRTYVENRPKYAGYSFEKLFPDVLFPADSEHNKLKASQARDLLSKMLVIDASKRISVDEALQHPYINVWYDPSEAEAPPPKIPDKQLDEREHTIEEWKELIYKEVMDLEERTKNGVIRGQPSPLAQVQQ
modifications: left off: small tags and cut ends
notes: JNK1 fused to HA tag
B4 was tested, and the Trans-SUMOylation (JUN-U; Table 1) was “−” and the Trans-SUMOylation (p53-U; protein 2 construct coexpressed with P53-U (p53-U) and EGFP-SUMO1 in HEK293, Table 1) was “−”.

B5: GST-DRG1: DRG1 fused to GST tag (protein)
chain: MSSTLAKIAEIEAEMARTQKNKATAHHLGLLKARLAKLRRELITPKGGGGGGPGEGFDVAKTGDARIGFVGFPSVGKSTLLSNLAGVYSEVAAYEFTTLTTVPGVIRYKGAKIQLLDLPGIIEGAKDGKGRGRQVIAVARTCNLILIVLDVLKPLGHKKIIENELEGFGIRLNSKPPNIGFKKKDKGGINLTATCPQSELDAETVKSILAEYKIHNADVTLRSDATADDLIDVVEGNRVYIPCIYVLNKIDQISIEELDIIYKVPHCVPISAHHRWNFDDLLEKIWDYLKLVRIYTKPKGQLPDYTSPVVLPYSRTTVEDFCMKIHKNLIKEFKYALVWGLSVKHNPQKVGKDHTLEDEDVIQIVKK
modifications: left off: a dimerising Fc or GST
notes: DRG1 fused to GST tag
For B5, the Trans-SUMOylation (JUN-U; Table 2) was “−”, the Trans-SUMOylation (U-MK2) was “−” and the Trans-SUMOylation (MK2-U) was “−”. For the same molecule, the Trans-SUMOylation (U-p38α) was “−”, the Trans-SUMOylation (U-MK5) was “−” and the Trans-SUMOylation (p53-U; [1]) was “−”.
